The text below walks through data of patent US20200040088A1 (Kyowa Kirin, published 2020).

Test [1] concerns the target T1, mouse IL-5Rα expressed on cells (Ba/F3 cells stably expressing mouse IL-5Rα); Expi293F cells transiently … (mouse, UniProt P21183 18-415).
T1 construct: whole, on cells; also called IL-5Rα-expressing Ba/F3 cells; IL5Ra-expressing Ba/F3 cells
T1 sequence (looked up): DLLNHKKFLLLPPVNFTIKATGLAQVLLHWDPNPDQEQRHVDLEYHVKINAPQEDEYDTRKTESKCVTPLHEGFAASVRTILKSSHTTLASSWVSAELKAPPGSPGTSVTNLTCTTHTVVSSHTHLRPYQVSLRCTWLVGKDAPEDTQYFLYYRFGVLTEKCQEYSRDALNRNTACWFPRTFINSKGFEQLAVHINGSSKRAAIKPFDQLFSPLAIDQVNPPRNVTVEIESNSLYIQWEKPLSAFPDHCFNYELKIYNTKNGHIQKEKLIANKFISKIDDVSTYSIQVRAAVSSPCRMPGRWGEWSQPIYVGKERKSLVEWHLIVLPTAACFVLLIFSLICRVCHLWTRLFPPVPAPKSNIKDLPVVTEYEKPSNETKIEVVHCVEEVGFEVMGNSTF
Nature of the test: flow cytometry on mouse IL-5Rα-expressing Ba/F3 cells, detected with Alexa Fluor 647 goat anti-mouse IgG (H+L), geometric mean fluorescence; parental Ba/F3 cells as negative control. As for the experimental part: Ba/F3 cells or IL-5Rα-expressing Ba/F3 cells were suspended at a cell density of 1×10⁶ cells/mL in FACS buffer 1. The cell suspension was inoculated at 100 μL/well ([…]) to a 96-well U-form plate. The cm1B12 antibody was diluted into final concentrations of 0.0003, 0.001, 0.003, 0.01, 0.03, 0.1, 0.3, 1, 3, and 10 μg/mL with FACS buffer 1, added at 100 μL/well, and reacted for 1 hour on ice. After washing with FACS buffer 1, Alexa Fluor® 647 Goat anti-mouse IgG (H+L) (Life Technologies Corp.) diluted into 5 μg/mL with FACS buffer 1 was added at 100 μL/well and reacted for 1 hour on ice. After washing with FACS buffer 1, the fluorescence intensity (geometric mean) was measured using a flow cytometer Canto II (Becton, Dickinson and Company).

The target in test [2] is T2, Mouse IL-5Rα-Fc (R&D Systems Inc.) (mouse, UniProt P21183 18-339).
T2 construct: Bought reagent; not shown: Fc part
T2 sequence (looked up): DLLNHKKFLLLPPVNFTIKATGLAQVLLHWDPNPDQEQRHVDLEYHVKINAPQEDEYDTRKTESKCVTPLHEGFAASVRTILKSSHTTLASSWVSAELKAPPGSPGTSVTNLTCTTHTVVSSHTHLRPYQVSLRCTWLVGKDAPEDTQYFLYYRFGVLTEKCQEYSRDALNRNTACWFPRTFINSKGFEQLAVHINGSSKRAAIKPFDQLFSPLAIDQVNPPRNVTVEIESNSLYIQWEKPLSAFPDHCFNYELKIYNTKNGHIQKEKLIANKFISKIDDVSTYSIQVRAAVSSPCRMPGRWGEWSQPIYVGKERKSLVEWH
In words: SPR, Biacore T200; mouse IL-5Rα-Fc captured on anti-human IgG (Fc); cm1B12 as analyte; bivalent analyte model. As for the experimental part:
The binding activity of the cm1B12 antibody to mouse IL-5Rα-Fc was analyzed using Biacore T200. Anti-Human IgG (Fc) was immobilized at about 9000 RU onto CM5 sensor chip (GE Healthcare) using Human Antibody Capture Kit (GE Healthcare) according to the attached instruction. Mouse IL-5Rα-Fc (R&D Systems Inc.) dissolved at 1 μg/mL in HBS-EP(+) was captured as a ligand at a flow rate of 30 μL/min for 20 seconds. Then, the cm1B12 antibody serially diluted into concentrations of 1000.00, 333.33, 111.11, 37.04, 12.35, and 4.12 ng/mL was added thereto as an analyte by the multicycle method.
The operation was performed under conditions involving a flow rate of 30 μL/min, and a contact time and a dissociation time of 120 seconds and 600 seconds, respectively. The analysis was carried out using Biacore T200 Evaluation software in the Surface bound and Bivalent Analyte mode.
Background: SPR reads the build-up and loss of mass on a sensor chip optically.

B1: rat/mouse chimera type 1B12 antibody (antibody, V domains shown)
VH: VQLVESDGGLVQPGRSLKLSCAASGFTFSDFYMAWVRQAPTKGLEWVATISYDGSSAYYRDSVKGRFTISRDNAKSTLYLQMDSLSSEDTATYYCARHDGYYPFDYWGQGVMVTVSS
VL: DIRMTQSPASLSASLGETVNIECLASEDIYSDLAWYQQKPGKSPQLLIYDANSLQNGVPSRFSGSGSGTQYSLKINSLQSEDVATYFCQQYNNYWTFGGGTKLELK
notes: also called cm1B12 antibody; cm1B12
B1: the concentration for a half-maximal effect (EC50 (read off the curve)) (in general, the concentration needed to bring the measured effect to its halfway point) in test [1] is around 0.05 µg/mL. For the same molecule, in test [2], the Kd came to 0.0317 nM, the koff (commonly the rate constant with which the complex falls apart) turned out to be 0.000126 s⁻¹ and the kon (usually the rate constant with which the complex forms) is 4.1e+06 M⁻¹ s⁻¹.
